Changes are numbered by the printed parent chain.
Columns and labels:
[1] = molecular target: MurT variants with substituted conserved residues ("in most cases"); assay: co-purification (metal-affinity chromatography of His-tagged MurT, SEC; SDS-PAGE with Coomassie stain, ratio of bands); His-tagged MurT (wild type or variant) co-expressed with untagged GatD in E. coli; lysate loaded on HisTrap FF in 50 mM HEPES pH 7.5, 300 mM NaCl, 10 mM MgCl2, 25 mM imidazole, 2 mM TCEP; then SEC
MurT/GatD [2] = molecular target: T1, MurT/GatD (Streptococcus pneumoniae, UniProt Q8DNZ8+Q8DNZ9); assay: X-ray crystal structure, […] Å; format: binding; settings: tentative assignment to residual density near GatD Cys107; no glutamine added, presumably carried over from E. coli
T1 construct: co-expressed in E. coli BL21 Star (DE3) from modified pET-30; MurT with N-terminal poly-His tag (cleavage not mentioned), GatD untagged; MurT/GatD heterodimer (four complexes in the asymmetric unit); MurT residues 1-42 present but not visible
T1 sequence (Q8DNZ9 1-447): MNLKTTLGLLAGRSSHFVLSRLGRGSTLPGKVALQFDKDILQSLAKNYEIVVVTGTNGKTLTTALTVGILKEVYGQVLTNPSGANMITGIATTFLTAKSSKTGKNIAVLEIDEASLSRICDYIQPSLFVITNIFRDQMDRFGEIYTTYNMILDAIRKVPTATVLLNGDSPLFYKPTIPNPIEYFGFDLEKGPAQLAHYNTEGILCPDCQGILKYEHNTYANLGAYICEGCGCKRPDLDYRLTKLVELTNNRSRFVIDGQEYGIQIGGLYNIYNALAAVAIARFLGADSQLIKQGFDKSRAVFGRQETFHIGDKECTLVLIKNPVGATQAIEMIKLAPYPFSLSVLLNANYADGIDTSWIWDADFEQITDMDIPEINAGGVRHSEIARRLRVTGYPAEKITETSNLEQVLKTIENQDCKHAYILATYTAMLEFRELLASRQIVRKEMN
T1 sequence (Q8DNZ8 1-260): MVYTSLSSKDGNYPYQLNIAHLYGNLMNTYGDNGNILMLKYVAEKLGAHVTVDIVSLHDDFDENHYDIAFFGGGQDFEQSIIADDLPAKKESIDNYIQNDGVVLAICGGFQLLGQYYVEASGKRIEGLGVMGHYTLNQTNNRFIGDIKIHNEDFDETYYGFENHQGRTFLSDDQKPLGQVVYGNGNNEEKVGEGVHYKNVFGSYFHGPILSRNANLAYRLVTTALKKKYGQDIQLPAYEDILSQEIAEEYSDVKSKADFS

MurT/GatD [3] = molecular target: T1, MurT/GatD; assay: coupled ATPase assay (pyruvate kinase / lactate dehydrogenase, NADH at […] nm), initial velocities; format: biochemical; settings: 2 mM ATP, 10 mM L-Gln, 10 mM MgCl2, 150 mM NaCl, 50 mM HEPES, 2 mM TCEP, 1% DDM, pH 7.5, 30 °C; MurT active site; read-out: Initial velocities method / Apparent KM
purified protein [4] = substrate: NC(=O)CC[C@H](N)C(=O)O; assay: purified protein; format: biochemical, Streptococcus pneumoniae; settings: 2 mM ATP, 10 μM lipid II (below its apparent KM), 10 mM MgCl2, 150 mM NaCl, 50 mM HEPES, 2 mM TCEP, 1% DDM, pH 7.5, 30 °C, GatD glutaminase site
purified protein [5] = substrate: Nc1ncnc2c1ncn2[C@@H]1O[C@H](COP(=O)(O)OP(=O)(O)OP(=O)(O)O)[C@@H](O)[C@H]1O; assay: purified protein; format: biochemical, Streptococcus pneumoniae; settings: 10 mM L-Gln, 10 μM lipid II (below its apparent KM), 10 mM MgCl2, 150 mM NaCl, 50 mM HEPES, 2 mM TCEP, 1% DDM, pH 7.5, 30 °C, MurT active site
[6] = molecular target: T2, MurT from Streptococcus pneumoniae, wild type, with N-terminal poly-histidine tag (Streptococcus pneumoniae, UniProt Q8DNZ9 1-447); assay: co-purification (metal-affinity chromatography of His-tagged MurT, SEC; SDS-PAGE with Coomassie stain, ratio of bands); His-tagged MurT (wild type or variant) co-expressed with untagged GatD in E. coli; lysate loaded on HisTrap FF in 50 mM HEPES pH 7.5, 300 mM NaCl, 10 mM MgCl2, 25 mM imidazole, 2 mM TCEP; then SEC; settings: partners not purified
T2 construct: MurT, subunit of the lipid II amidotransferase MurT/GatD, Streptococcus pneumoniae; N-terminal region 1-42 present by mass spectrometry though not visible in the crystal; central domain 43-302, C-terminal domain 303-439; also called MT; source: E. coli BL21 Star (DE3), co-expressed with GatD from a modified pET-30 plasmid; purified (HisTrap, Q Sepharose, SEC; anion exchange omitted for activity …)
T2 sequence: T1 sequence (Q8DNZ9 1-447)

[7] = molecular target: T3, MurT 4C4S variant (the four cysteines of the cysteine tetrad replaced by serines), with N-terminal … (Streptococcus pneumoniae, UniProt Q8DNZ9 1-447, 4C4S (Cys205 to Ser) | 4C4S (Cys208 to Ser) | 4C4S (Cys227 to Ser) | 4C4S …); assay: as above; settings: partners not purified
T3 construct: MurT, Streptococcus pneumoniae, with cysteines 205, 208, 227 and 230 replaced by serines; PDB 6FQB holds the wild-type parent; also called MT4C4S; 4C4S MurT/GatD; source: E. coli BL21 Star (DE3), co-expressed with GatD; purified (HisTrap, SEC); not shown: poly-histidine, N-terminal, kept
T3 sequence: T1 sequence (Q8DNZ9 1-447) with C205S, C208S, C227S, C230S

GatD from Streptococcus pneumoniae, wild type, without tag (from UniProt Q8DNZ8 1-260) (enzyme)
ratio of MurT/GatD bands [1]: 1.78

NC(=O)CC[C@H](N)C(=O)O [L-Gln]
X-ray crystal structure, 3.0 Å (MurT/GatD [2]): glutamine was thus tentatively placed in the residual density observed in GatD active site

lipid II
Km (MurT/GatD [3]): 220 ± 60 µM

B1: MurT/GatD (Streptococcus pneumoniae R6) (protein)
chain 1: T1 sequence (Q8DNZ9 1-447)
chain 2: T1 sequence (Q8DNZ8 1-260)
notes: co-expressed in E. coli BL21 Star (DE3) from modified pET-30; MurT with N-terminal poly-His tag (cleavage not mentioned), GatD untagged; MurT/GatD heterodimer (four complexes in the asymmetric unit); MurT residues 1-42 present but not visible
Km (purified protein [4]): 78 ± 8 µM
Km (purified protein [5]): 16 ± 2 µM

B2: GatD from Streptococcus pneumoniae, wild type, without tag (enzyme)
chain: T1 sequence (Q8DNZ8 1-260)
notes: GatD, class I glutaminase subunit of the MurT/GatD amidotransferase, Streptococcus pneumoniae; also called GD; GatDSpn; source: E. coli BL21 Star (DE3), co-expressed with His-tagged MurT from a modified pET-30 plasmid; co-purified with MurT (HisTrap, Q Sepharose, SEC)
ratio of the Coomassie-stained MurT/GatD bands after SDS-PAGE [6]: 1.78
ratio of the Coomassie-stained MurT/GatD bands after SDS-PAGE [7]: 1.4

Source: publication PMC6085368, “Structure of the essential peptidoglycan amidotransferase MurT/GatD complex from Streptococcus pneumoniae” (Nature Communications, 2018)
